How the values were obtained:
cJun bZIP = target: T1, cJun bZIP (human, UniProt P05412 252-308, limits assumed); experiment: ITC, antagonist injected into cJun, one site model
T1 construct: Purified from a His-SUMO fusion with the tag cleaved off; also called c-Jun bZIP domain; 60 amino acid c-Jun bZIP construct
T1 chain: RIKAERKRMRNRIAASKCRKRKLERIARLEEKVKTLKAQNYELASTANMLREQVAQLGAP

cFos bZIP domain = target: T2, cFos bZIP domain (Homo sapiens, UniProt P01100, S177Y); experiment: CD spectra/thermal denaturation with cFos bZIP (off-target); format: binding; conditions: CD spectra and thermal denaturation
T2 construct: His-SUMO (N, cleaved yes); made in house; host or cells: E. coli
T2 sequence (P01100 with tags, fused parts or gaps S177Y): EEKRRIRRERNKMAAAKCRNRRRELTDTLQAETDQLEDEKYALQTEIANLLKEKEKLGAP
Experimental: (FIG. 11D). Although this represented a negligible 1.3° C. increase in heterodimer Tm, there was crucially a much larger ΔTm for HingeW/cJun relative to the component peptide denaturation profiles than for A-FosW/cJun. The low thermal stability of the HingeW homodimer results in no observable lower baseline prior to the transition such that the Tm for this component, and thus the average, cannot be determined. However, this ΔTm can be estimated to be ˜40° C., compared to 27.5° C. for A-FosW/cJun. The TBS screen has therefore led to an optimised reduction in homodimersation more so than increased heterodimerisation with the target. This ensures that more antagonist is available as free monomer in solution and therefore in a target-dimerisation competent state. Another difference between the two denaturation profiles is the presence of a double transition for the A-FosW/cJun heterodimer, with a smaller initial transition occurring at ˜30° C.

B1: HingeW (peptide)
peptide: MASLEQRAEELARENEELEKEAEELVVEEDVLEEEIEQLEERNYALRKEIEDLQKQLEKLGAPHHHHHH
notes: Recombinant, capped (MAS at the N-terminus, GAP at the C-terminus) and C-terminally 6xHis-tagged, 69 amino acids; also called peptide 1
cJun bZIP
  Kd: 0.0144 µM
  TΔS (ITC): -39.2 kJ/mol
  ΔG (ITC): -46.2 kJ/mol
  ΔH (ITC): -85.4 kJ/mol
cFos bZIP domain
  interaction with cFos bZIP: no interaction
